According to patent publication US20240279278A1, “NMU RECEPTOR 2 AGONISTS” (Boehringer Ingelheim International GmbH, priority 2023, published 2024):
Starred links: 1 amine or outer side, 2 acyl side, 3 side chain; linkers in the order of their positions; H or OH if unused. Non-standard residues stand in square brackets, D forms with d. *: point of attachment. Pipz(1-CH2CO,4-CH2CH2NH) = O=C(CN1CCN(CCN[*:1])CC1)[*:2]; C18 diacid = O=C(O)CCCCCCCCCCCCCCCCC(=O)*; γGlu = O=C(O)[C@H](CCC(=O)[*:2])N[*:1]; 3Pal = N[C@@H](Cc1cccnc1)C(=O)O; 4Pal = N[C@@H](Cc1ccncc1)C(=O)O; NMeL = CN[C@@H](CC(C)C)C(=O)O; NMeA = CN[C@@H](C)C(=O)O; Nle = CCCC[C@H](N)C(=O)O; Sar = CNCC(=O)O

target: T1, human neuromedin U receptor 1 (human, UniProt Q9HB89 24-426); assay: cell-based or functional assay
T1 sequence (looked up): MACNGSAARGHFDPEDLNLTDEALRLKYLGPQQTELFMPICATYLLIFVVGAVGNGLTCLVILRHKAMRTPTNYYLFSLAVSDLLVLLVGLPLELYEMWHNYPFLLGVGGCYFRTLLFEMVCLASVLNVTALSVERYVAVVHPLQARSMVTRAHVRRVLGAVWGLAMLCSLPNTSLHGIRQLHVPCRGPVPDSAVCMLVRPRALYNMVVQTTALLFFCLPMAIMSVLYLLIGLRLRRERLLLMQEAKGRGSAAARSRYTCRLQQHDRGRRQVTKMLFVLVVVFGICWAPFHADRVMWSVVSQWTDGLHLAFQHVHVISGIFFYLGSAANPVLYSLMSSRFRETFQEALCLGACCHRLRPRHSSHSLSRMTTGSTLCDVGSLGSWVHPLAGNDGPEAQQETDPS

| Binder | EC50 (hNMUR1) buffer [nM] |
| --- | --- |
| {C18 diacid}-[γGlu][γGlu][γGlu][Sar][Sar][Sar][Sar][Sar][Sar][Sar][Sar][Sar][Sar][Sar][Sar][Sar][Sar][Sar][Pipz(1-CH2CO,4-CH2CH2NH)]YF[NMeL][Nle][3Pal][NMeA]RG-NH2 (SMILES CCCC[C@H](NC(=O)[C@H](CC(C)C)N(C)C(=O)[C@H](Cc1ccccc1)NC(=O)[C@H](Cc1ccc(O)cc1)NC(=O)CN1CCN(CCNC(=O)CN(C)C(=O)CN(C)C(=O)CN(C)C(=O)CN(C)C(=O)CN(C)C(=O)CN(C)C(=O)CN(C)C(=O)CN(C)C(=O)CN(C)C(=O)CN(C)C(=O)CN(C)C(=O)CN(C)C(=O)CN(C)C(=O)CN(C)C(=O)CN(C)C(=O)CC[C@H](NC(=O)CC[C@H](NC(=O)CC[C@H](NC(=O)CCCCCCCCCCCCCCCCC(=O)O)C(=O)O)C(=O)O)C(=O)O)CC1)C(=O)N[C@@H](Cc1cccnc1)C(=O)N(C)[C@@H](C)C(=O)N[C@@H](CCCNC(=N)N)C(=O)NCC(N)=O) [C18DA-gGlu3-Sar15-AEPipAc-Tyr-Phe-NMeLeu-Nle-3Pal-NMeAla-Arg-Gly-NH2] | > 1000 |
| EEEXXXXXXXXXXXXXYFLXRARG (HELM PEPTIDE1{[O=C(O)CCCCCCCCCCCCCCCCCCC(=O)[*:2]].[gGlu].[gGlu].[gGlu].[Sar].[Sar].[Sar].[Sar].[Sar].[Sar].[Sar].[Sar].[Sar].[Sar].[Sar].[Sar].[O=C(CN1CCN(CCN[*:1])CC1)[*:2]].Y.F.[meL].[Nle].R.[meA].R.G.[am]}$$$$V2.0; SMILES CCCC[C@H](NC(=O)[C@H](CC(C)C)N(C)C(=O)[C@H](Cc1ccccc1)NC(=O)[C@H](Cc1ccc(O)cc1)NC(=O)CN1CCN(CCNC(=O)CN(C)C(=O)CN(C)C(=O)CN(C)C(=O)CN(C)C(=O)CN(C)C(=O)CN(C)C(=O)CN(C)C(=O)CN(C)C(=O)CN(C)C(=O)CN(C)C(=O)CN(C)C(=O)CN(C)C(=O)CC[C@H](NC(=O)CC[C@H](NC(=O)CC[C@H](NC(=O)CCCCCCCCCCCCCCCCCCC(=O)O)C(=O)O)C(=O)O)C(=O)O)CC1)C(=O)N[C@@H](CCCNC(=N)N)C(=O)N(C)[C@@H](C)C(=O)N[C@@H](CCCNC(=N)N)C(=O)NCC(N)=O) [C20DA-gGlu3-Sar12-AEPipAc-Tyr-Phe-NMeLeu-Nle-Arg-NMeAla-Arg-Gly-NH2] | 670 |
| EEEXXXXXXXXXXYFLXRARG (HELM PEPTIDE1{[O=C(O)CCCCCCCCCCCCCCCCCCC(=O)[*:2]].[gGlu].[gGlu].[gGlu].[Sar].[Sar].[Sar].[Sar].[Sar].[Sar].[Sar].[Sar].[Sar].[O=C(CN1CCN(CCN[*:1])CC1)[*:2]].Y.F.[meL].[Nle].R.[meA].R.G.[am]}$$$$V2.0; SMILES CCCC[C@H](NC(=O)[C@H](CC(C)C)N(C)C(=O)[C@H](Cc1ccccc1)NC(=O)[C@H](Cc1ccc(O)cc1)NC(=O)CN1CCN(CCNC(=O)CN(C)C(=O)CN(C)C(=O)CN(C)C(=O)CN(C)C(=O)CN(C)C(=O)CN(C)C(=O)CN(C)C(=O)CN(C)C(=O)CN(C)C(=O)CC[C@H](NC(=O)CC[C@H](NC(=O)CC[C@H](NC(=O)CCCCCCCCCCCCCCCCCCC(=O)O)C(=O)O)C(=O)O)C(=O)O)CC1)C(=O)N[C@@H](CCCNC(=N)N)C(=O)N(C)[C@@H](C)C(=O)N[C@@H](CCCNC(=N)N)C(=O)NCC(N)=O) [C20DA-gGlu3-Sar9-AEPipAc-Tyr-Phe-NMeLeu-Nle-Arg-NMeAla-Arg-Gly-NH2] | 440 |
| {C18 diacid}-[γGlu][γGlu][γGlu][Sar][Sar][Sar][Sar][Sar][Sar][Sar][Sar][Sar][Sar][Sar][Sar][Sar][Sar][Sar][Pipz(1-CH2CO,4-CH2CH2NH)]YF[NMeL][Nle][4Pal][NMeA]RG-NH2 (SMILES CCCC[C@H](NC(=O)[C@H](CC(C)C)N(C)C(=O)[C@H](Cc1ccccc1)NC(=O)[C@H](Cc1ccc(O)cc1)NC(=O)CN1CCN(CCNC(=O)CN(C)C(=O)CN(C)C(=O)CN(C)C(=O)CN(C)C(=O)CN(C)C(=O)CN(C)C(=O)CN(C)C(=O)CN(C)C(=O)CN(C)C(=O)CN(C)C(=O)CN(C)C(=O)CN(C)C(=O)CN(C)C(=O)CN(C)C(=O)CN(C)C(=O)CC[C@H](NC(=O)CC[C@H](NC(=O)CC[C@H](NC(=O)CCCCCCCCCCCCCCCCC(=O)O)C(=O)O)C(=O)O)C(=O)O)CC1)C(=O)N[C@@H](Cc1ccncc1)C(=O)N(C)[C@@H](C)C(=O)N[C@@H](CCCNC(=N)N)C(=O)NCC(N)=O) [C18DA-gGlu3-Sar15-AEPipAc-Tyr-Phe-NMeLeu-Nle-4Pal-NMeAla-Arg-Gly-NH2] | > 1000 |
| EEXXXXXXXXXXYFLXRARG (HELM PEPTIDE1{[O=C(O)CCCCCCCCCCCCCCCCC(=O)[*:2]].[gGlu].[gGlu].[Sar].[Sar].[Sar].[Sar].[Sar].[Sar].[Sar].[Sar].[Sar].[O=C(CN1CCN(CCN[*:1])CC1)[*:2]].Y.F.[meL].[Nle].R.[meA].R.G.[am]}$$$$V2.0; SMILES CCCC[C@H](NC(=O)[C@H](CC(C)C)N(C)C(=O)[C@H](Cc1ccccc1)NC(=O)[C@H](Cc1ccc(O)cc1)NC(=O)CN1CCN(CCNC(=O)CN(C)C(=O)CN(C)C(=O)CN(C)C(=O)CN(C)C(=O)CN(C)C(=O)CN(C)C(=O)CN(C)C(=O)CN(C)C(=O)CN(C)C(=O)CC[C@H](NC(=O)CC[C@H](NC(=O)CCCCCCCCCCCCCCCCC(=O)O)C(=O)O)C(=O)O)CC1)C(=O)N[C@@H](CCCNC(=N)N)C(=O)N(C)[C@@H](C)C(=O)N[C@@H](CCCNC(=N)N)C(=O)NCC(N)=O) [C18DA-gGlu2-Sar9-AEPipAc-Tyr-Phe-NMeLeu-Nle-Arg-NMeAla-Arg-Gly-NH2] | 550 |
| EEXXXXXXXXXXYFLXRPRG (HELM PEPTIDE1{[O=C(O)CCCCCCCCCCCCCCCCC(=O)[*:2]].[gGlu].[gGlu].[Sar].[Sar].[Sar].[Sar].[Sar].[Sar].[Sar].[Sar].[Sar].[O=C(CN1CCN(CCN[*:1])CC1)[*:2]].Y.F.[meL].[Nle].R.P.R.G.[am]}$$$$V2.0; SMILES CCCC[C@H](NC(=O)[C@H](CC(C)C)N(C)C(=O)[C@H](Cc1ccccc1)NC(=O)[C@H](Cc1ccc(O)cc1)NC(=O)CN1CCN(CCNC(=O)CN(C)C(=O)CN(C)C(=O)CN(C)C(=O)CN(C)C(=O)CN(C)C(=O)CN(C)C(=O)CN(C)C(=O)CN(C)C(=O)CN(C)C(=O)CC[C@H](NC(=O)CC[C@H](NC(=O)CCCCCCCCCCCCCCCCC(=O)O)C(=O)O)C(=O)O)CC1)C(=O)N[C@@H](CCCNC(=N)N)C(=O)N1CCC[C@H]1C(=O)N[C@@H](CCCNC(=N)N)C(=O)NCC(N)=O) [C18DA-gGlu2-Sar9-AEPipAc-Tyr-Phe-NMeLeu-Nle-Arg-Pro-Arg-Gly-NH2] | 90 |
| EEEXXXXXXXXXXYFLXXARG (HELM PEPTIDE1{[O=C(O)CCCCCCCCCCCCCCCCCCC(=O)[*:2]].[gGlu].[gGlu].[gGlu].[Sar].[Sar].[Sar].[Sar].[Sar].[Sar].[Sar].[Sar].[Sar].[O=C(CN1CCN(CCN[*:1])CC1)[*:2]].Y.F.[meL].[Nle].[Dab].[meA].R.G.[am]}$$$$V2.0; SMILES CCCC[C@H](NC(=O)[C@H](CC(C)C)N(C)C(=O)[C@H](Cc1ccccc1)NC(=O)[C@H](Cc1ccc(O)cc1)NC(=O)CN1CCN(CCNC(=O)CN(C)C(=O)CN(C)C(=O)CN(C)C(=O)CN(C)C(=O)CN(C)C(=O)CN(C)C(=O)CN(C)C(=O)CN(C)C(=O)CN(C)C(=O)CC[C@H](NC(=O)CC[C@H](NC(=O)CC[C@H](NC(=O)CCCCCCCCCCCCCCCCCCC(=O)O)C(=O)O)C(=O)O)C(=O)O)CC1)C(=O)N[C@@H](CCN)C(=O)N(C)[C@@H](C)C(=O)N[C@@H](CCCNC(=N)N)C(=O)NCC(N)=O) [C20DA-gGlu3-Sar9-AEPipAc-Tyr-Phe-NMeLeu-Nle-Dbu-NMeAla-Arg-Gly-NH2] | > 1000 |
| EEEXXXXXXXXXXXXXYFLXXARG (HELM PEPTIDE1{[O=C(O)CCCCCCCCCCCCCCCCCCC(=O)[*:2]].[gGlu].[gGlu].[gGlu].[Sar].[Sar].[Sar].[Sar].[Sar].[Sar].[Sar].[Sar].[Sar].[Sar].[Sar].[Sar].[O=C(CN1CCN(CCN[*:1])CC1)[*:2]].Y.F.[meL].[Nle].[Dab].[meA].R.G.[am]}$$$$V2.0; SMILES CCCC[C@H](NC(=O)[C@H](CC(C)C)N(C)C(=O)[C@H](Cc1ccccc1)NC(=O)[C@H](Cc1ccc(O)cc1)NC(=O)CN1CCN(CCNC(=O)CN(C)C(=O)CN(C)C(=O)CN(C)C(=O)CN(C)C(=O)CN(C)C(=O)CN(C)C(=O)CN(C)C(=O)CN(C)C(=O)CN(C)C(=O)CN(C)C(=O)CN(C)C(=O)CN(C)C(=O)CC[C@H](NC(=O)CC[C@H](NC(=O)CC[C@H](NC(=O)CCCCCCCCCCCCCCCCCCC(=O)O)C(=O)O)C(=O)O)C(=O)O)CC1)C(=O)N[C@@H](CCN)C(=O)N(C)[C@@H](C)C(=O)N[C@@H](CCCNC(=N)N)C(=O)NCC(N)=O) [C20DA-gGlu3-Sar12-AEPipAc-Tyr-Phe-NMeLeu-Nle-Dbu-NMeAla-Arg-Gly-NH2] | > 1000 |
| EEEXXXXXXXXXXYFLXXPRG (HELM PEPTIDE1{[O=C(O)CCCCCCCCCCCCCCCCCCC(=O)[*:2]].[gGlu].[gGlu].[gGlu].[Sar].[Sar].[Sar].[Sar].[Sar].[Sar].[Sar].[Sar].[Sar].[O=C(CN1CCN(CCN[*:1])CC1)[*:2]].Y.F.[meL].[Nle].[Dab].P.R.G.[am]}$$$$V2.0; SMILES CCCC[C@H](NC(=O)[C@H](CC(C)C)N(C)C(=O)[C@H](Cc1ccccc1)NC(=O)[C@H](Cc1ccc(O)cc1)NC(=O)CN1CCN(CCNC(=O)CN(C)C(=O)CN(C)C(=O)CN(C)C(=O)CN(C)C(=O)CN(C)C(=O)CN(C)C(=O)CN(C)C(=O)CN(C)C(=O)CN(C)C(=O)CC[C@H](NC(=O)CC[C@H](NC(=O)CC[C@H](NC(=O)CCCCCCCCCCCCCCCCCCC(=O)O)C(=O)O)C(=O)O)C(=O)O)CC1)C(=O)N[C@@H](CCN)C(=O)N1CCC[C@H]1C(=O)N[C@@H](CCCNC(=N)N)C(=O)NCC(N)=O) [C20DA-gGlu3-Sar9-AEPipAc-Tyr-Phe-NMeLeu-Nle-Dbu-Pro-Arg-Gly-NH2] | 540 |
